Test results reported in IntAct's records for PubMed 20952388.

B1: Ethylene receptor 1 (Arabidopsis thaliana (Mouse-ear cress)), P49333 (parent)
chain: MEVCNCIEPQWPADELLMKYQYISDFFIAIAYFSIPLELIYFVKKSAVFPYRWVLVQFGAFIVLCGATHLINLWTFTTHSRTVALVMTTAKVLTAVVSCATALMLVHIIPDLLSVKTRELFLKNKAAELDREMGLIRTQEETGRHVRMLTHEIRSTLDRHTILKTTLVELGRTLALEECALWMPTRTGLELQLSYTLRHQHPVEYTVPIQLPVINQVFGTSRAVKISPNSPVARLRPVSGKYMLGEVVAVRVPLLHLSNFQINDWPELSTKRYALMVLMLPSDSARQWHVHELELVEVVADQVAVALSHAAILEESMRARDLLMEQNVALDLARREAETAIRARNDFLAVMNHEMRTPMHAIIALSSLLQETELTPEQRLMVETILKSSNLLATLMNDVLDLSRLEDGSLQLELGTFNLHTLFREVLNLIKPIAVVKKLPITLNLAPDLPEFVVGDEKRLMQIILNIVGNAVKFSKQGSISVTALVTKSDTRAADFFVVPTGSHFYLRVKVKDSGAGINPQDIPKIFTKFAQTQSLATRSSGGSGLGLAISKRFVNLMEGNIWIESDGLGKGCTAIFDVKLGISERSNESKQSGIPKVPAIPRHSNFTGLKVLVMDENGVSRMVTKGLLVHLGCEVTTVSSNEECLRVVSHEHKVVFMDVCMPGVENYQIALRIHEKFTKQRHQRPLLVALSGNTDKSTKEKCMSFGLDGVLLKPVSLDNIRDVLSDLLEPRVLYEGM
partner: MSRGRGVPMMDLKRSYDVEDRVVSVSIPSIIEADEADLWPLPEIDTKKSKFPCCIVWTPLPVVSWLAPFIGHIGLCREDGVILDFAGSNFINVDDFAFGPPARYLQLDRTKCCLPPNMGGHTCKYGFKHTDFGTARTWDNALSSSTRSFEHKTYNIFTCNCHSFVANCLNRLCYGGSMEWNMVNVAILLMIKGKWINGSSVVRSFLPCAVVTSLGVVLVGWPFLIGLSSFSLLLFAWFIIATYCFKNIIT

Variants of: B1
Settings: with rte1_arath RTE1, F4ITL6

Variant | effect of a mutation on the interaction
C65W | decreasing interaction
A102T | decreasing interaction
